Consider eleven molecules from patent publication US20060058230A1 (published 2006).

Non-standard residues stand in square brackets, D forms with d. No end group written: not given here. 2Nal = N[C@@H](Cc1ccc2ccccc2c1)C(=O)O; 2Thi = N[C@@H](Cc1cccs1)C(=O)O; β3hL = CC(C)C[C@H](N)CC(=O)O; Nle = CCCC[C@H](N)C(=O)O; βAla = NCCC(=O)O

T1: PTH receptor on SaOS-2/B10 cells (UniProt Q03431 27-593)
T1 sequence (looked up): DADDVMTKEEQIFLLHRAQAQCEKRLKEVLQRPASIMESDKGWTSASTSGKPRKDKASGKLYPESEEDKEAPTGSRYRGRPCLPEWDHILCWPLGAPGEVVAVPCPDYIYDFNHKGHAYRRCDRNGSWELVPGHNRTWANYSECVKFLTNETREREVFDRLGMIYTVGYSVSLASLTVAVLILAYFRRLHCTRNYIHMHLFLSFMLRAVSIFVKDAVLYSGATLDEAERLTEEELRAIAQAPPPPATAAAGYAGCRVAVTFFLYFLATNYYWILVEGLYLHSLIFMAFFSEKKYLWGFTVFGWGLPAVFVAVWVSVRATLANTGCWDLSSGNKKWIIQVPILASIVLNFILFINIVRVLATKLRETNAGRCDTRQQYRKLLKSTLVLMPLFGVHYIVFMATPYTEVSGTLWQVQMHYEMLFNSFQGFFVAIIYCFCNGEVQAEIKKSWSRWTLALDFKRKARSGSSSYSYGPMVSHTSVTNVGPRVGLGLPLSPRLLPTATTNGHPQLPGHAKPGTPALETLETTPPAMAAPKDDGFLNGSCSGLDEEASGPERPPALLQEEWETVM

T2: recombinant hPTH1-receptor (human, UniProt Q03431 27-593)
T2 sequence (looked up): T1 sequence (looked up)

B1: [Glu^22,25,29, Lys^26,30]hPTHrP(1-34)NH2 (peptide)
peptide: AVSEHQLLHDKGKSIQDLRRREFLEKLIEKIHTA-NH2
notes: Synthetic analog of human PTHrP(1-34), carboxamide at the C-terminus
B2: [Glu^25,29, Leu^23,27,31, Lys^30]hPTH(1-34)NH2 (peptide)
peptide: SVSEIQLMHNLGKHLNSMERVELLEKLLEKLHNF-NH2
notes: Synthetic analog of human PTH(1-34), carboxamide at the C-terminus
B3: [Glu^25,29, Lys^30]hPTH(1-34)NH2 (peptide)
peptide: SVSEIQLMHNLGKHLNSMERVEWLEKKLEKVHNF-NH2
notes: as for B2
B4: [Leu^23,27,31]hPTH(1-34)NH2 (peptide)
peptide: SVSEIQLMHNLGKHLNSMERVELLRKLLQDLHNF-NH2
notes: as for B2
B5: [Glu^22,25,29, Leu^23,28,31, Lys^26,30, Thi^32]hPTHrP(1-34)NH2 (peptide)
peptide: AVSEHQLLHDKGKSIQDLRRRELLEKLLEKL[2Thi]TA-NH2
modifications: N-terminus assumed
SMILES: CC[C@H](C)[C@H](NC(=O)[C@H](CO)NC(=O)[C@H](CCCCN)NC(=O)CNC(=O)[C@H](CCCCN)NC(=O)[C@H](CC(=O)O)NC(=O)[C@H](Cc1c[nH]cn1)NC(=O)[C@H](CC(C)C)NC(=O)[C@H](CC(C)C)NC(=O)[C@H](CCC(N)=O)NC(=O)[C@H](Cc1c[nH]cn1)NC(=O)[C@H](CCC(=O)O)NC(=O)[C@H](CO)NC(=O)[C@@H](NC(=O)[C@H](C)N)C(C)C)C(=O)N[C@@H](CCC(N)=O)C(=O)N[C@@H](CC(=O)O)C(=O)N[C@@H](CC(C)C)C(=O)N[C@@H](CCCNC(=N)N)C(=O)N[C@@H](CCCNC(=N)N)C(=O)N[C@@H](CCCNC(=N)N)C(=O)N[C@@H](CCC(=O)O)C(=O)N[C@@H](CC(C)C)C(=O)N[C@@H](CC(C)C)C(=O)N[C@@H](CCC(=O)O)C(=O)N[C@@H](CCCCN)C(=O)N[C@@H](CC(C)C)C(=O)N[C@@H](CC(C)C)C(=O)N[C@@H](CCC(=O)O)C(=O)N[C@@H](CCCCN)C(=O)N[C@@H](CC(C)C)C(=O)N[C@@H](Cc1cccs1)C(=O)N[C@H](C(=O)N[C@@H](C)C(N)=O)[C@@H](C)O
notes: as for B1
B6: [Leu^23,28,31]hPTHrP(1-34)NH2 (peptide)
peptide: AVSEHQLLHDKGKSIQDLRRRFLLHHLLAELHTA-NH2
notes: as for B1
B7: [Glu^22,25,29, Leu^23,28,30,31, Lys^26]hPTHrP(1-34)NH2 (peptide)
peptide: AVSEHQLLHDKGKSIQDLRRRELLEKLLELLHTA-NH2
notes: as for B1
B8: [Nle^8, β-Ala^17,19, β-hLeu^18, Nal^23, Tyr^34]bPTH(1-34)NH2 (peptide)
peptide: AVSEIQF[Nle]HNLGKHLS[βAla][β3hL][βAla]RVE[2Nal]LRKKLQDVHNY-NH2
modifications: N-terminus assumed
SMILES: CCCC[C@H](NC(=O)[C@H](Cc1ccccc1)NC(=O)[C@H](CCC(N)=O)NC(=O)[C@@H](NC(=O)[C@H](CCC(=O)O)NC(=O)[C@H](CO)NC(=O)[C@@H](NC(=O)[C@H](C)N)C(C)C)[C@@H](C)CC)C(=O)N[C@@H](Cc1c[nH]cn1)C(=O)N[C@@H](CC(N)=O)C(=O)N[C@@H](CC(C)C)C(=O)NCC(=O)N[C@@H](CCCCN)C(=O)N[C@@H](Cc1c[nH]cn1)C(=O)N[C@@H](CC(C)C)C(=O)N[C@@H](CO)C(=O)NCCC(=O)N[C@H](CC(=O)NCCC(=O)N[C@@H](CCCNC(=N)N)C(=O)N[C@H](C(=O)N[C@@H](CCC(=O)O)C(=O)N[C@@H](Cc1ccc2ccccc2c1)C(=O)N[C@@H](CC(C)C)C(=O)N[C@@H](CCCNC(=N)N)C(=O)N[C@@H](CCCCN)C(=O)N[C@@H](CCCCN)C(=O)N[C@@H](CC(C)C)C(=O)N[C@@H](CCC(N)=O)C(=O)N[C@@H](CC(=O)O)C(=O)N[C@H](C(=O)N[C@@H](Cc1c[nH]cn1)C(=O)N[C@@H](CC(N)=O)C(=O)N[C@@H](Cc1ccc(O)cc1)C(N)=O)C(C)C)C(C)C)CC(C)C
B9: [Nle^8,18, β-Ala^19, Nal^23, Tyr^34]bPTH(1-34)NH2 (peptide)
peptide: AVSEIQF[Nle]HNLGKHLSS[Nle][βAla]RVE[2Nal]LRKKLQDVHNY-NH2
modifications: N-terminus assumed
SMILES: CCCC[C@H](NC(=O)[C@H](CO)NC(=O)[C@H](CO)NC(=O)[C@H](CC(C)C)NC(=O)[C@H](Cc1c[nH]cn1)NC(=O)[C@H](CCCCN)NC(=O)CNC(=O)[C@H](CC(C)C)NC(=O)[C@H](CC(N)=O)NC(=O)[C@H](Cc1c[nH]cn1)NC(=O)[C@H](CCCC)NC(=O)[C@H](Cc1ccccc1)NC(=O)[C@H](CCC(N)=O)NC(=O)[C@@H](NC(=O)[C@H](CCC(=O)O)NC(=O)[C@H](CO)NC(=O)[C@@H](NC(=O)[C@H](C)N)C(C)C)[C@@H](C)CC)C(=O)NCCC(=O)N[C@@H](CCCNC(=N)N)C(=O)N[C@H](C(=O)N[C@@H](CCC(=O)O)C(=O)N[C@@H](Cc1ccc2ccccc2c1)C(=O)N[C@@H](CC(C)C)C(=O)N[C@@H](CCCNC(=N)N)C(=O)N[C@@H](CCCCN)C(=O)N[C@@H](CCCCN)C(=O)N[C@@H](CC(C)C)C(=O)N[C@@H](CCC(N)=O)C(=O)N[C@@H](CC(=O)O)C(=O)N[C@H](C(=O)N[C@@H](Cc1c[nH]cn1)C(=O)N[C@@H](CC(N)=O)C(=O)N[C@@H](Cc1ccc(O)cc1)C(N)=O)C(C)C)C(C)C
notes: Synthetic analog of bovine PTH(1-34), carboxamide at the C-terminus
B10: [Nle^8, β-hLeu^18, β-Ala^19, Nal^23, Tyr^34]bPTH(1-34)NH2 (peptide)
peptide: AVSEIQF[Nle]HNLGKHLSS[β3hL][βAla]RVE[2Nal]LRKKLQDVHNY-NH2
modifications: N-terminus assumed
SMILES: CCCC[C@H](NC(=O)[C@H](Cc1ccccc1)NC(=O)[C@H](CCC(N)=O)NC(=O)[C@@H](NC(=O)[C@H](CCC(=O)O)NC(=O)[C@H](CO)NC(=O)[C@@H](NC(=O)[C@H](C)N)C(C)C)[C@@H](C)CC)C(=O)N[C@@H](Cc1c[nH]cn1)C(=O)N[C@@H](CC(N)=O)C(=O)N[C@@H](CC(C)C)C(=O)NCC(=O)N[C@@H](CCCCN)C(=O)N[C@@H](Cc1c[nH]cn1)C(=O)N[C@@H](CC(C)C)C(=O)N[C@@H](CO)C(=O)N[C@@H](CO)C(=O)N[C@H](CC(=O)NCCC(=O)N[C@@H](CCCNC(=N)N)C(=O)N[C@H](C(=O)N[C@@H](CCC(=O)O)C(=O)N[C@@H](Cc1ccc2ccccc2c1)C(=O)N[C@@H](CC(C)C)C(=O)N[C@@H](CCCNC(=N)N)C(=O)N[C@@H](CCCCN)C(=O)N[C@@H](CCCCN)C(=O)N[C@@H](CC(C)C)C(=O)N[C@@H](CCC(N)=O)C(=O)N[C@@H](CC(=O)O)C(=O)N[C@H](C(=O)N[C@@H](Cc1c[nH]cn1)C(=O)N[C@@H](CC(N)=O)C(=O)N[C@@H](Cc1ccc(O)cc1)C(N)=O)C(C)C)C(C)C)CC(C)C
notes: as for B9

One assay concerns the target T1, PTH receptor on SaOS-2/B10 cells. Put plainly: cell-based or functional assay.
B1: the “EC50 (half maximal stimulation of adenylate cyclase)” value (from here on “EC50”) was found to be 0.42 nM.

With B2, the “EC50” value was found to be 24 nM.

B3: the “EC50” value amounted to 25.5 nM.

Regarding B4, the “EC50” value stood at 1.12 nM.

As to B5, the “EC50” value was determined as 10 nM.

As for B6, the “EC50” value stood at 0.74 nM.

B7: the “EC50” value worked out at 5 nM.

For another assay, the target named is T2, recombinant hPTH1-receptor. Kind of assay: cell-based or functional assay.
Take “[Nle^8, β-Ala^18,19, Nal^23, Tyr^34]bPTH(1-34)NH2 (peptide)”: the EC50 (half maximal stimulation of adenylate cyclase) turned out to be 13.8 nM.

With B8, the “EC50” value was 9.97 nM.

With B9, the “EC50” value came to 1.51 nM.

Regarding B10, the “EC50” value amounted to 2.73 nM.

A further assay concerns the target T1, PTH receptor on SaOS-2/B10 cells. Put plainly: competition with mono-125I-[Nle8,18,Tyr34]bPTH(1-34)NH2 on SaOS-2/B10 cells. The method, then:
SaOS-2/B10 cells were maintained for four days after they had reached confluence. The medium was replaced with 5% FBS […] medium and incubated for 2 hrs at room temperature with 10×10⁴ cpm mono-¹²⁵I-[Nle^{8,18},Tyr³⁴(3-¹²⁵I)]bPTH(1-34)NH₂ in the presence or absence of a competing tested polypeptide of the invention. The cells were washed four times with ice-cold PBS and lysed with 0.1M NaOH, and the radioactivity associated with the cells was counted in a scintillation counter. Synthesis of the radiolabelled [Nle^{8,18},Tyr³⁴(3-¹²⁵I)]bPTH(1-34)NH₂ was carried out as described in Goldman M. E., et al., Endocrinology, (1988), 123, 1468-1475.
The binding assay was conducted on the polypeptides of the invention having SEQ ID NO:5, 6, 7, 9, 10, 11, and 12.
As for B1, the IC50 came out at 5.5 nM.

Molecule B2 gave an IC50 of 216 nM.

As for B3, the IC50 amounted to 30 nM.

Regarding B4, the IC50 worked out at 41 nM.

Consider B5, for which the IC50 is 90 nM.

B6 returned an IC50 of 18.3 nM.

The molecule B7 returned an IC50 of 70 nM.

In the next assay the target is T2, recombinant hPTH1-receptor. Put plainly: competition with 125I-[Nle8,18,Nal23,Tyr34]bPTH(1-34)NH2 on HEK293/C21 cells with hPTH1-receptor. The method, then: Human embryonic kidney (HEK293) cells, stably transfected with recombinant hPTH1-receptor (HEK293/C21 cell line, ˜400,000 receptors/cell) (Pines, M., Adams, A. E., Stueckle, S., Bessalle, R., Rashti-Behar, V., Chorev, M., Rosenblatt, M., and Suva, L. J. Endocrinology 1994, 135, 1713-1716), were maintained in D-MEM medium supplemented with 10% fetal bovine serum and […] glutamine at 37° C. in a humidified atmosphere of 95% air/5% CO₂. The medium was changed every 3-4 days, and the cells were subcultured every week. Ligand stimulated adenylyl cyclase activity and radioreceptor competition binding assays were performed on confluent cultures, 1-3 days after a change of medium.
[Nle^{8,18},Nal²³,Tyr³⁴]bPTH(1-34)-NH₂ was radioiodinated and the crude material was purified as previously described (Roubini, E., Duong, L. T., Gibbons, S. W., Leu, C. T., Caulfield, M. P., Chorev, M., and Rosenblatt, M. Biochemistry 1992, 31, 4026-4033). Briefly, 67 μg of peptide in 50 μL phosphate buffer, pH 7.4, in a borosilicate tube, coated with 10 μg Iodogen® (Pierce Chemical), were treated at room temperature with 2 mCi [¹²⁵I]Na for 12 min, followed by dilution with 200 μL of 0.1% TFA in water.
Cells were plated in 24-well tissue culture dishes (Corning Glass Works, Corning, N.Y.) and grown to subconfluency. […] After incubation, cells were washed twice with PBS and lysed with 0.1 M NaOH. Radioactivity in the lysate was measured in a γ-counter (Analytic GammaTrac™ 1193).
With B9, the IC50 was found to be 59 nM.

With B10, the IC50 was determined as 117 nM.
